Patent publication US20200048644A1

Target: recombinant GPIb
Test: GPIb binding activity test of the purified product (format not described; FIG. 9)

B1: recombinant Agkisacutacin (heterodimer snake venom protein, A chain and B chain, expressed in Pichia pastoris GS115) (protein)
chain 1: DVDCLPGWSAYDQSCYRVFKLLKTWDDAEKFCTERPKGGHLVSIESAGERDFVAQLVSENKQTDNVWLGLKIQSKGQQCSTEWTDGSSVSYENFSEYQSKKCFVEKNTGFRTWLNLNCGSEYAFVCKSPP
chain 2: GFCCPLRWSSYEGHCYLVVKEKKTWDDAEKFCTEQRKGGHLVSVHSREEADFLVHLAYPILDLSLIWMGLSNMWNDCKREWSDGTKLDFKAWAKTSDCLIGKTDDNQWLNMDCSKKHYFVCKFKL
  Kd: 100 nM
